Experimental data taken from the supplement of paper PMC10065799, “High-throughput profiling of sequence recognition by tyrosine kinases and SH2 domains using bacterial peptide display” (eLife, 2023).

Legend:
[1] = target: c-Src SH2; experiment: SH2 binding enrichment of the phosphorylated peptide, bacterial display (enrichment ratio); higher = better substrate or ligand; peptides without Tyr show the background
[2] = target: Grb2 SH2 (UniProt P62993); experiment: as above
[3] = target: SHP2-C SH2; experiment: as above
[4] = target: MERTK (UniProt Q12866); experiment: phosphorylation enrichment, bacterial display (enrichment ratio); higher = better substrate or ligand; peptides without Tyr show the background
[5] = target: Hck (UniProt P08631); experiment: as above
[6] = system: AncSZ; experiment: as above
[7] = target: EPHB2 (UniProt P29323); experiment: as above
[8] = system: c-Abl (mouse); experiment: as above
[9] = target: Fyn (UniProt P06241); experiment: as above
[10] = system: c-Src; experiment: as above
[11] = target: Jak2 (UniProt O60674); experiment: as above
[12] = target: EPHB1 (UniProt P54762); experiment: as above
[13] = target: FGFR3 (UniProt P22607); experiment: as above
[14] = target: FGFR1 (UniProt P11362); experiment: as above
[15] = target: Fes (UniProt P07332); experiment: as above
[16] = system: Fer (mouse); experiment: as above
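Throughout, for SH2 binding enrichment of the phosphorylated peptide, bacterial display: peptide library displayed on the E. coli surface as eCPX fusions, selected cells deep-sequenced, score is each peptide's frequency after selection divided by its frequency in the input.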
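Throughout, for phosphorylation enrichment, bacterial display: 11-residue human phosphosite peptides and single-mutation variants displayed on the E. coli surface, counted by deep sequencing, each peptide's frequency after selection divided by its frequency in the unselected input library; frequency after pTyr selection over input frequency; kinase dosed for 20-30% of maximal phosphorylation in three min.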

FGFR1, sequence (P11362 whole entry, looked up): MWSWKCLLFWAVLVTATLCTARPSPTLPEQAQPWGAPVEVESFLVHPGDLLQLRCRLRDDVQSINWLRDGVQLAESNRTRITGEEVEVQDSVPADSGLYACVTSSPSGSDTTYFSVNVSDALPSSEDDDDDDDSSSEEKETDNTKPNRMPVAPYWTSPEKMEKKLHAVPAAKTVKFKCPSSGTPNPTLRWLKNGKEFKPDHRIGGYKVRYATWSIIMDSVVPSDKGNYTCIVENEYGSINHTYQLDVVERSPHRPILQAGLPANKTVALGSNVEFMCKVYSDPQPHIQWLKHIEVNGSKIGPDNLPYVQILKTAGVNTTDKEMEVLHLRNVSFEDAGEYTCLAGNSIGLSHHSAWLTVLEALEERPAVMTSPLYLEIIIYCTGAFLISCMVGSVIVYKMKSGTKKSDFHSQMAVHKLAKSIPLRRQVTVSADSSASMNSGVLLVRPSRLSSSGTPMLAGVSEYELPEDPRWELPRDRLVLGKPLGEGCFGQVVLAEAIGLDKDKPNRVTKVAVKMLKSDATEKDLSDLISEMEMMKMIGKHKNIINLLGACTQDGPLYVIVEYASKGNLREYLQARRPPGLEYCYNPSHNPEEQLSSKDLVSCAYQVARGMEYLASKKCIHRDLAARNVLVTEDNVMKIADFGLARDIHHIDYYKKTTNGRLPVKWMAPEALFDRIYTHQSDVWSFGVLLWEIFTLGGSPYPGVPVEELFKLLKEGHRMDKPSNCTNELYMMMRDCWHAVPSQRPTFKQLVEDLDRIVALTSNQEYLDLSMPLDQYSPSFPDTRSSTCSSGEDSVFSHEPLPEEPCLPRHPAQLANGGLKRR
EPHB1, sequence (P54762 whole entry, looked up): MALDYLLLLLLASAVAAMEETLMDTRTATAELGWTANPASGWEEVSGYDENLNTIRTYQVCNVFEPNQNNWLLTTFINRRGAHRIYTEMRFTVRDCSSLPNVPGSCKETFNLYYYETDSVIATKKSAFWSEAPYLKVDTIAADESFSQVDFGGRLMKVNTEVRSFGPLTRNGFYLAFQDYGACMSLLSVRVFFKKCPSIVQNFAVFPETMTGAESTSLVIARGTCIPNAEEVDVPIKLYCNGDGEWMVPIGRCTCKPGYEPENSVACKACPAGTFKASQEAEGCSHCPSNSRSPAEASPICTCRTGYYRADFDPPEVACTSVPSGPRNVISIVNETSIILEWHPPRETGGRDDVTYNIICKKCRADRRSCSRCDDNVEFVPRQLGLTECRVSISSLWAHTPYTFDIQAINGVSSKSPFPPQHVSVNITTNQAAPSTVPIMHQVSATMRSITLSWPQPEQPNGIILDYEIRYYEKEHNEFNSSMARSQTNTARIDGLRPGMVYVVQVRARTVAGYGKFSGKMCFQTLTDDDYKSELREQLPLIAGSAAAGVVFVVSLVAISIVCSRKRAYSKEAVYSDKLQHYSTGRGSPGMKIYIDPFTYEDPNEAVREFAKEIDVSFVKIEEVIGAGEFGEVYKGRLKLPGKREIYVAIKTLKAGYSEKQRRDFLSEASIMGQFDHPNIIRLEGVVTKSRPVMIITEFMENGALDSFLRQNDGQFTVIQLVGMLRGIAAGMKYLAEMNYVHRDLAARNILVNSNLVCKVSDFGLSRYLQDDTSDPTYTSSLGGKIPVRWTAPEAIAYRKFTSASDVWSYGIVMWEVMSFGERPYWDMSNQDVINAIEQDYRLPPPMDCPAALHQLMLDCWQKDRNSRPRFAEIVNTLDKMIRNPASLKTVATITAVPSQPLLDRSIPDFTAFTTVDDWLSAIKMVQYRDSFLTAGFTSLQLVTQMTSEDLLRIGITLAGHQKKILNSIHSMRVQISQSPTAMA
Jak2, sequence (O60674 whole entry, looked up): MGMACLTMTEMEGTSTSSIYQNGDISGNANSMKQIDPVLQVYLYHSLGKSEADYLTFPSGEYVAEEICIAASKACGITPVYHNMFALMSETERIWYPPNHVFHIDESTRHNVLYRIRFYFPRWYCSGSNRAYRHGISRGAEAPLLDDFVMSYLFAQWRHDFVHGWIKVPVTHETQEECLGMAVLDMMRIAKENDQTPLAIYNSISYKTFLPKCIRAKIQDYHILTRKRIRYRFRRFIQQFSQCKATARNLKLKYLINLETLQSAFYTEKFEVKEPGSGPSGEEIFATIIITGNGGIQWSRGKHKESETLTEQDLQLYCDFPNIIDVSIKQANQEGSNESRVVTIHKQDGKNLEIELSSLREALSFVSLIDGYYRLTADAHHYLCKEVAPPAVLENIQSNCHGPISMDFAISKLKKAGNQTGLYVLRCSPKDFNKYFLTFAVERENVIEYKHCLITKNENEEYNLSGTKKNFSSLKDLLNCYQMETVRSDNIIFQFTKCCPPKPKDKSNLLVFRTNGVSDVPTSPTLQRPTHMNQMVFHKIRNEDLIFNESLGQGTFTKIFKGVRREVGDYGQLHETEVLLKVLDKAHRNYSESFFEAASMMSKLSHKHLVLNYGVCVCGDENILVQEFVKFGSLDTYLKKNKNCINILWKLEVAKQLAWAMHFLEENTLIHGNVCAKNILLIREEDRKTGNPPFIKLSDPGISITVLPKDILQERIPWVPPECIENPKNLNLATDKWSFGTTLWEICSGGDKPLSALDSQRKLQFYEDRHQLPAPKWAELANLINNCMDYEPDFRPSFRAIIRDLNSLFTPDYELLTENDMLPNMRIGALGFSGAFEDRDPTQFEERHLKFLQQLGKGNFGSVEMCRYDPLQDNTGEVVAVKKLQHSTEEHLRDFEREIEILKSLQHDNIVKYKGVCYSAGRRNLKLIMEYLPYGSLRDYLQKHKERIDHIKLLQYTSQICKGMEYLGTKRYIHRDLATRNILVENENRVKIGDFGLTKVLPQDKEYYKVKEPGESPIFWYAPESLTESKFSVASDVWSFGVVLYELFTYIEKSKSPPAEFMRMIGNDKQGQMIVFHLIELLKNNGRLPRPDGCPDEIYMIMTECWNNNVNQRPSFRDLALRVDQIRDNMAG
Fes, sequence (P07332 whole entry, looked up): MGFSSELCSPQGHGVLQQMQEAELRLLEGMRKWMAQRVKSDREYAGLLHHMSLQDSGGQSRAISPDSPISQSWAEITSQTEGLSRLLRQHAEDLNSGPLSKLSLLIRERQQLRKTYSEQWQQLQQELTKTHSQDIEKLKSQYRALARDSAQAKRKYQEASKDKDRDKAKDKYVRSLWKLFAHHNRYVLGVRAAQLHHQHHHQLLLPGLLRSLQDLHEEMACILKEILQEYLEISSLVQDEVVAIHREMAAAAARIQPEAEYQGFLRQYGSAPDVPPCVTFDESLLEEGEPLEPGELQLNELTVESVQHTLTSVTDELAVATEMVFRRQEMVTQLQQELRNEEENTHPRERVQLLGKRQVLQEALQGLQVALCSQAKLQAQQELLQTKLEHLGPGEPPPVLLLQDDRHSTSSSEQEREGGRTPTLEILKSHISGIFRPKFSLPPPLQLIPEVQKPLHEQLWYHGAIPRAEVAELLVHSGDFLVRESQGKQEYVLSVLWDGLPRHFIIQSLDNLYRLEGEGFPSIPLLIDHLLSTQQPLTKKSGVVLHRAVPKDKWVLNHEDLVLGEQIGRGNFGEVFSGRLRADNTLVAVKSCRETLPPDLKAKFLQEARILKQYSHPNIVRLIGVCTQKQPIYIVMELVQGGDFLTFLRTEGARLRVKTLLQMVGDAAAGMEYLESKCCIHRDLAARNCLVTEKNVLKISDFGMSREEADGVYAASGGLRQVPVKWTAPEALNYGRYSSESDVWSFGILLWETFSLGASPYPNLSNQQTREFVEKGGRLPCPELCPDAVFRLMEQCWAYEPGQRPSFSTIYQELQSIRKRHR
EPHB2, sequence (P29323 whole entry, looked up): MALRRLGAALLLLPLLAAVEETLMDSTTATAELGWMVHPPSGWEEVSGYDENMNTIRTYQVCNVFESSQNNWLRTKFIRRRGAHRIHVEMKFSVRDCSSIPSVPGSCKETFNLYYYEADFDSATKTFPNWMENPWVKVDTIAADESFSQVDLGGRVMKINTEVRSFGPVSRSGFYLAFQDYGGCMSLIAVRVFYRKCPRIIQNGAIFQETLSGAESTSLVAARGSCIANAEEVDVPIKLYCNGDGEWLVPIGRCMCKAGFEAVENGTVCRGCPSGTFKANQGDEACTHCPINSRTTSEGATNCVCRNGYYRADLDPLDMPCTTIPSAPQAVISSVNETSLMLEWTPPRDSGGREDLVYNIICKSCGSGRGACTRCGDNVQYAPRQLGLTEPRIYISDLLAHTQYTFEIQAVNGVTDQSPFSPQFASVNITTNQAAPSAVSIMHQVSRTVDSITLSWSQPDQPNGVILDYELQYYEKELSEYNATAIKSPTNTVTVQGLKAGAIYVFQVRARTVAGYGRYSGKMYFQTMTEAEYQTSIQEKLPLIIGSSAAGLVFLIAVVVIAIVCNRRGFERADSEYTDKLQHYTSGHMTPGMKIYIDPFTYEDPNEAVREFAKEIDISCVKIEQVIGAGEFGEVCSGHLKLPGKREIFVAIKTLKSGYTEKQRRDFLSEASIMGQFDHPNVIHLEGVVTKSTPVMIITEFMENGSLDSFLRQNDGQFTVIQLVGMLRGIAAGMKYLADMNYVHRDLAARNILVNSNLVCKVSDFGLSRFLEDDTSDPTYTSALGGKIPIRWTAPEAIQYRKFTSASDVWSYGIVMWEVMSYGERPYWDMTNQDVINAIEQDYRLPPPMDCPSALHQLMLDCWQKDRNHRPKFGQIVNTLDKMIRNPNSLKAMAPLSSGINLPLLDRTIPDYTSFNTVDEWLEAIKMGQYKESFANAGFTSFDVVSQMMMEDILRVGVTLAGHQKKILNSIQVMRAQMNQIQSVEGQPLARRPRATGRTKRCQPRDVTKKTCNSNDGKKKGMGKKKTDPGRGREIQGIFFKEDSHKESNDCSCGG
Grb2 SH2, sequence (P62993 whole entry, looked up): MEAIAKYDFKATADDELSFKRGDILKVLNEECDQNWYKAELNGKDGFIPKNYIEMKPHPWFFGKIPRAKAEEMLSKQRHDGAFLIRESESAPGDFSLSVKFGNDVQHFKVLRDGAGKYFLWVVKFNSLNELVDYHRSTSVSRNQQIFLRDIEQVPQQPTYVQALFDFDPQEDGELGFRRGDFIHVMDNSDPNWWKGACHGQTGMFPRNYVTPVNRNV

Sequence | SH2 binding enrichment [1] | SH2 binding enrichment [2] | SH2 binding enrichment [3] | phosphorylation enrichment [4] | phosphorylation enrichment [5] | phosphorylation enrichment [6] | phosphorylation enrichment [7] | phosphorylation enrichment [8] | phosphorylation enrichment [9] | phosphorylation enrichment [10] | phosphorylation enrichment [11] | phosphorylation enrichment [12] | phosphorylation enrichment [13] | phosphorylation enrichment [14] | phosphorylation enrichment [15] | phosphorylation enrichment [16]
RTLIRYANLSN [BEST1_Y131_G135S] | 1.59 | 6.11 | 8.49 | 0.631 | 0.675 | 0.774 | 0.71 | 0.654 | 0.79 | 0.65 | 0.792 | 0.733 | 0.757 | 0.801 | 1.02 | 0.566
SAAAIYMVRHP [PMP22_Y117_T118M] | 0.68 | 0.884 | 1.02 | 3.25 | 7.71 | 0.756 | 1.82 | 1.65 | 4.97 | 5.44 | 0.587 | 2.45 | 0.519 | 0.425 | 0.77 | 0.53
AVARPYHIQKW [ACSBG1_Y677_A673V] | 1.27 | 1.85 | 1.31 | 0.362 | 0.402 | 0.643 | 0.358 | 0.573 | 0.391 | 0.401 | 0.461 | 0.381 | 0.506 | 0.468 | 0.584 | 0.332
SVTCTYSPARN [TP53_Y126_L130R] | 0.371 | 0.793 | 0.613 | 0.449 | 0.56 | 1.22 | 0.654 | 0.84 | 0.489 | 0.555 | 1.06 | 0.576 | 0.756 | 0.53 | 1.37 | 0.554
QEIATYRRLPE [KRT16_Y417_L421P] | 0.441 | 0.855 | 0.593 | 0.489 | 0.553 | 0.762 | 0.592 | 0.683 | 0.525 | 0.38 | 0.73 | 0.77 | 0.737 | 0.507 | 0.757 | 0.406
EPAVLYNLKDR [MYH7_Y103] | 0.374 | 0.774 | 0.867 | 0.473 | 0.662 | 0.722 | 0.537 | 0.571 | 0.583 | 0.461 | 0.585 | 0.411 | 0.539 | 0.521 | 0.835 | 0.455
KDHPDYKFQLR [SOX10_Y171_P175L_YF] | 0.649 | 0.772 | 0.691 | 0.454 | 0.406 | 0.798 | 0.492 | 0.512 | 0.409 | 0.512 | 0.698 | 0.49 | 0.633 | 0.478 | 0.824 | 0.65
PYSNSYENSLI [EPOR_Y489_P488S] | 4.51 | 18.4 | 0.735 | 0.552 | 0.887 | 1.32 | 0.433 | 1.06 | 0.699 | 0.689 | 0.903 | 0.713 | 0.854 | 1.04 | 1.41 | 0.754
NAPNSYGRRLI [CDKN2A_Y44_P48L] | 0.332 | 0.897 | 0.32 | 0.442 | 0.504 | 0.627 | 0.454 | 0.48 | 0.413 | 0.449 | 0.531 | 0.372 | 0.509 | 0.446 | 0.616 | 0.475
VHFLVYHHHHH [CACNA1H_Y519_H516Y_YF] | 0.791 | 1.21 | 0.755 | 0.388 | 0.416 | 0.88 | 0.661 | 0.863 | 0.527 | 0.453 | 1.11 | 0.555 | 0.834 | 0.437 | 1.11 | 0.493
CERFSYYGMKA [SLC15A2_Y60] | 1.08 | 0.843 | 0.799 | 0.665 | 1.16 | 1.59 | 0.611 | 0.737 | 0.689 | 1.1 | 3.12 | 0.843 | 2.88 | 3.72 | 1.04 | 0.558
GHPFAYDWISI [BEST1_Y227_L224P_YF] | 1.72 | 1.36 | 0.869 | 6.57 | 0.811 | 1.04 | 0.721 | 0.562 | 0.478 | 0.629 | 0.774 | 0.932 | 1.29 | 2.03 | 1.22 | 14.7
LKMLVYLDMSK [LRRC7_Y234] | 0.531 | 0.757 | 0.721 | 0.545 | 0.559 | 1.36 | 0.805 | 1.18 | 0.654 | 0.441 | 1.24 | 1.01 | 1.13 | 0.347 | 1.72 | 0.475
MIRSAYALGGL [CPS1_Y590] | 0.46 | 0.715 | 0.689 | 0.449 | 0.386 | 0.54 | 0.435 | 0.417 | 0.41 | 0.384 | 0.597 | 0.358 | 0.473 | 0.392 | 0.534 | 0.32
FRRITYFNWRH [PDE6B_Y556_H557Y_YF] | 0.363 | 0.821 | 1.99 | 0.615 | 0.832 | 0.817 | 0.625 | 0.573 | 0.607 | 0.673 | 0.852 | 0.626 | 0.476 | 0.553 | 0.8 | 0.423
EEVGIYRMSGV [BCR_Y1089_V1091M] | 0.431 | 0.744 | 0.957 | 0.647 | 5.64 | 0.925 | 0.502 | 9.58 | 6.38 | 6.23 | 1.12 | 0.55 | 0.612 | 0.556 | 0.921 | 0.535
